# Measured values taken from patent publication US12527876B2, “Insulin-like growth factor-chemotherapeutic conjugate for treating myelodysplastic syndrome” (IGF Oncology, LLC, priority 2017, dated 2026).
# Columns and labels:
# [1] = system: MDS; conditions: higher-risk patients, phase III trial; cited from earlier work
# [2] = rat, in vivo
# [3] = parameters: species or system Beagle dogs; conditions: dog, in vivo
# Description: Toxicokinetic (TK) parameters for free MTX were estimated from plasma concentration-time data arising from a 5-dose once weekly intravenous infusion study with insulin-like growth factor (IGF) MTX conjugate at low (0.5 μEq/kg), mid (2.0 μEq/kg) and high (4.0 μEq/kg) MTX equivalent dose levels. No consistent differences in the plasma levels of MTX were observed between animals of different genders and thus data from males and females were combined. Plasma levels of MTX increased with time both during and following a 1-hour intravenous infusion of the IGF-MTX conjugate. […] Both the AUC∞ and Cmax values were dose proportional. […] The pharmacokinetics of MTX following Day 29 of dosing were similar to those following Day 1 of dosing.
# Following intravenous administration of the IGF-MTX conjugate in the dose range of 0.5-4.0 μEq/kg to Beagle dogs, serum levels of the IGF-MTX conjugate decreased quickly. There was no gender bias and an increase in serum exposure was observed on Day 29 compared to Day 1. […] The elimination of the IGF-MTX conjugate was marginally slower with successive doses, resulting in an increased plasma exposure. The elimination of the IGF-MTX conjugate preceded the development of maximal MTX concentrations.
# [4] = system: soluble IGF binding proteins; conditions: compared to wild-type IGF-1; Francis 1992, Tomas 1993, U.S. Pat. No. 4,876,242; cited from earlier work
# [5] = Solubility of IGF-1R ligand-MTX conjugates; assay type: physicochemical; conditions: phosphate buffered saline, or any neutral pH solution containing salt, over about 50 mM NaCl
molecule,measurement,setting,value
Nc1ncn([C@@H]2O[C@H](CO)[C@@H](O)[C@H]2O)c(=O)n1 [azacitidine],patients with responses,[1],approximately 50%
same,survival at 2 years of follow-up compared to conventional care,[1],doubled
IGF-MTX,decrease of platelets,[2],approximately 38%
same,increase of mean spleen weight,[2],17 to 38%
same,mean increases or decreases in blood glucose,[2],−1.8±7 to 7.5±3.4
same,reduction in neutrophils,[2],50-57%
same,reduction of WBC's,[2],5-35%
same,apparent clearance of MTX,[3],5.67 to 7.67 mL/min/kg
same,apparent volume of distribution of the IGF-MTX conjugate,[3],0.07 to 0.20 L/kg
same,decrease of apparent clearance on Day 29 compared to Day 1,[3],25-50%
same,mean residence time of the IGF-MTX conjugate,[3],1.4 to 5.3 h
same,terminal half-life of the IGF-MTX conjugate,[3],2.5 to 4.6 h
same,apparent clearance of the IGF-MTX conjugate,[3]; iv,0.33 to 0.83 mL/min/kg
"des(1-3)IGF1: lacks the first three residues of wild-type IGF-1, SEQ ID NO: 7 [reference compound]",binding affinity to the soluble IGF binding proteins,[4],reduced binding affinity
insulin-MTX: insulin conjugated to methotrexate,solubility,[5],low solubility
"IGF132: variant of IGF-1, SEQ ID NO: 4, disclosed in U.S. Pat. No. 4,876,242 (protein) FVNQHLCGSHLVEALYLVCGDRGFYFNKPTGYGSSSRRAPQTGIVDECCFRSCDLRRLEMYCAPLKPAKSA",binding affinity to the soluble IGF binding proteins,[4],reduced binding affinity
